Data as given in US6887844 (dated 2005).

How the values were obtained:
[1] = target: NCAM on cells (primary hippocampal neurones; NCAM-140 on transfected fibroblasts) (rat) (UniProt P13596); experiment: cell-based or functional assay
[2] = target: NCAM Ig2 domain, recombinant, produced in Pichia pastoris (rat) (UniProt P13596); experiment: NMR titration, 14 points, 15N-labelled domain-2 (1.0 mM) titrated with unlabelled domain-1, chemical shifts of 10 residues fitted
[3] = target: the molecule itself; experiment: gel filtration chromatography, self-association

| Molecule | binding result [3] | other results |
| --- | --- | --- |
| NCAM Ig2 domain, recombinant, produced in Pichia pastoris (from UniProt P13596 117-208) (ligand) |  | concentration of maximal neuritogenic effect, primary hippocampal neurones on fibronectin [1]: 0.54 µM |
| NCAM Ig1 domain, recombinant, produced in Pichia pastoris (Ig1 PP) (from UniProt P13596 20-116) (receptor) |  | Kd [2]: 2500 µM |
| NCAM (20-208) with three mutations in the domain-1 E30A, E35A, K37A (receptor, UniProt P13596 20-208, looked up, Species as for m28; also called first mutant) LQVDIVPSQGAISVGASAFFLCQVAGDAKDKDISWFSPNGEKLSPNQQRISVVWNDDDSSTLTIYNANIDDAGIYKCVVTAEDGTQSEATVNVKIFQKLMFKNAPTPQEFKEGEDAVIVCDVVSSLPPTIIWKHKGRDVILKKDVRFIVLSNNYLQIRGIKKTDEGTYRCEGRILARGEINFKDIQVIV | no binding |  |
| NCAM (20-208) with three mutations in the domain-2 R192A, R196A, E198A (receptor, UniProt P13596 20-208, looked up, Species as for m28; also called second mutant; mutated double domain) LQVDIVPSQGEISVGESKFFLCQVAGDAKDKDISWFSPNGEKLSPNQQRISVVWNDDDSSTLTIYNANIDDAGIYKCVVTAEDGTQSEATVNVKIFQKLMFKNAPTPQEFKEGEDAVIVCDVVSSLPPTIIWKHKGRDVILKKDVRFIVLSNNYLQIRGIKKTDEGTYRCEGAILAAGAINFKDIQVIV | no binding |  |
| NCAM (20-208) with three mutations in the domain-1 E30A, E35A, K37A and three mutations in the domain-2 R192A, R196A, E198A (receptor, UniProt P13596 20-208, looked up, Species as for m28; also called third mutant) LQVDIVPSQGAISVGASAFFLCQVAGDAKDKDISWFSPNGEKLSPNQQRISVVWNDDDSSTLTIYNANIDDAGIYKCVVTAEDGTQSEATVNVKIFQKLMFKNAPTPQEFKEGEDAVIVCDVVSSLPPTIIWKHKGRDVILKKDVRFIVLSNNYLQIRGIKKTDEGTYRCEGAILAAGAINFKDIQVIV | no binding |  |
